PMC4349574 (Developmental cell, 2013)

Molecular target: T1, Ypp1 (residues 11–817), purified, GST tag removed (S. cerevisiae, UniProt P46951 11-817)
T1 sequence (looked up): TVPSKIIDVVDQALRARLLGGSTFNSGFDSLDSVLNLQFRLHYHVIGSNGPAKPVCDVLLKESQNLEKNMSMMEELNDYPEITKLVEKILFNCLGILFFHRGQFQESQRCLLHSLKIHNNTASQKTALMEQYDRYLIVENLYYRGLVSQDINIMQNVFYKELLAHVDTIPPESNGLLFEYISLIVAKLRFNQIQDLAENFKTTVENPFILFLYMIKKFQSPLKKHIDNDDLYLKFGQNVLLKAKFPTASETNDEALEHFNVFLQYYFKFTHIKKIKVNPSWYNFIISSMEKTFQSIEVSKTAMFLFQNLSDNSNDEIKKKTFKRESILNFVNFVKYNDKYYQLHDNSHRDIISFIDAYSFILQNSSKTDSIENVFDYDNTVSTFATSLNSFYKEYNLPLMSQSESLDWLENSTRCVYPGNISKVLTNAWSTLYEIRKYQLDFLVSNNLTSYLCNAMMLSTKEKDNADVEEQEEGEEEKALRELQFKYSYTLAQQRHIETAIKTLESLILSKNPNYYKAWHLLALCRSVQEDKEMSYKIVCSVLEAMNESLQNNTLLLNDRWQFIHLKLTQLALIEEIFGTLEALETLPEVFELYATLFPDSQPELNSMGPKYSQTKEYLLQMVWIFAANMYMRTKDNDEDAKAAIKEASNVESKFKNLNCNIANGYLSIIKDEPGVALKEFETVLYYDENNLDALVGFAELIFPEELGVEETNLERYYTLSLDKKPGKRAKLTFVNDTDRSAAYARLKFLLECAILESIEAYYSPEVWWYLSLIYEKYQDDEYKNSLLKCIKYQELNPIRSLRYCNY
Assay: pull-down

- binding result: binds
B1: GST-Efr3-C_(651–730) (domain or fragment, S. cerevisiae, UniProt Q03653 651-730, looked up)
chain: APKVSDLKKTMNEKNIPNNMKRDGSFRGSQSVKSRVTNITFLLNELKTFSDDANKIKDPDEENIVGLDKIDVARSNSLRL
